US20170173125A1
Blank lines part the entries; values can stand above or below the binder they belong to. Where no end group is shown, it is not given here.

How the values were obtained:
[1] = target: TCRs of CD8+CD40Ig Tregs (CD8+CD45RClow Tregs from CD40Ig-treated long-term allograft bearing LEW.1A recipients); assay: cell-based or functional assay
[2] = target: TCRs of CD8+CD40Ig Tregs (CD8+CD45RClow Tregs from CD40Ig-treated long-term allograft bearing LEW.1A recipients); assay: PE and APC tetramer double staining, flow cytometry, 10 µg/mL, 1 hour at 4° C.
[3] = target: TCRs of naive splenic CD8+CD45RClow Tregs; assay: as above
[4] = target: TCRs of CD8+CD40Ig Tregs (CD8+CD45RClow Tregs from CD40Ig-treated long-term allograft bearing LEW.1A recipients); assay: BV421 control tetramer staining, flow cytometry, 10 µg/mL

- CD25 expression at the cell surface of CD8+CD40Ig Tregs after 6 days with matured syngeneic pDCs, fold vs. no peptide [1]: 1.67 fold
B1: peptide Bu31 (peptide)
peptide: YLRYDSDVGEYRAVTE

- percent of Bu31-specific (tetramer-stained) cells among CD8+CD40Ig Tregs, graft [2]: 1.11%
- percent of Bu31-specific (tetramer-stained) cells among CD8+CD40Ig Tregs, spleen [2]: 0.281%
- precursor frequency (tetramer-stained cells) in naive splenic CD8+CD45RClow Tregs [3]: 0.187%
B2: MHC class I tetramer RT1.A^a/Bu31-10 (peptide-MHC, part only; not given: MHC heavy chain and b2m, part only)
peptide: YLRYDSDVGEYR
modifications: also: bound in MHC class I RT1.A^a tetramer with streptavidin-PE or -APC

- percent non-specific staining among Bu31-10-specific cells [4]: 1.6%
B3: control tetramer RT1.A^a/MTF-E (peptide-MHC, part only; not given: MHC heavy chain and b2m, part only)
peptide: ILFPSSERLISNR
modifications: also: bound in MHC class I RT1.A^a tetramer with streptavidin-BV421
